Test results published in the supplement of paper PMC9170038.

System: MS2 coat protein
Test: apparent KD of MS2 coat protein; designed switch direction (-1 OFF switch, 1 ON switch): -1; higher = weaker reporter binding
Method in brief: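 Designed RNA switches were transcribed on Illumina chips by stalled E. coli RNA polymerase and titrated with SNAP-549-labelled MS2 coat protein from 0.7 or 1.5 nM, doubling to 3 µM. Step length ran from 0.8–1.5 h at the lowest concentration to 10–20 min at the highest. The apparent KD is the median over clusters for each design, from curve-fitted normalised cluster fluorescence.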

[1] = input ligand: microRNA oligo, concentration not stated
[2] = Eterna round: R95, input ligand: FMN 200 uM
[3] = Eterna round: R95, input ligand: microRNA oligo, concentration not stated
[4] = Eterna round: R95, input ligand: none

Sequence	apparent KD of MS2 coat protein [1] [nM]	apparent KD of MS2 coat protein [2] [nM]	apparent KD of MS2 coat protein [3] [nM]	apparent KD of MS2 coat protein [4] [nM]	apparent KD of MS2 coat protein (input ligand: FMN 200 uM) [nM]	apparent KD of MS2 coat protein (input ligand: none) [nM]
UUUGUUUUGCAAGGAUAUGUUUAAUUUUAGUUUCCUUACACAUGAGGAUCACCCAUGUUAUACUUACAGAAGGUGCGUAAUUUU [Excl-NG2-LRO02] (Eterna round: R96, puzzle: Exclusion NG 2)	104	–	–	–	–	–
UUUAAUUUUUUUUUUUUACAAGCUUUUUGCUCGUCUUAUACAUGAGGAUCACCCAUGUGGGUAAAGGGUAAAUUAUC [JMF 80] (puzzle: Sensor v3, turn-off variant 2)	–	23	50.9	20.9	–	–
CGGCAAUCCUAGGAUAUGCUAGACGAGAGUCUAGCAGAAGGAGGAACAUGAGGAUCACCCAUGUGUCCUAGCCG [Mat - Exclusion 6 - Eli Mod - D15] (Eterna round: R97, puzzle: Exclusion 6)	–	–	–	–	22.1	15.6
CCUGCGGACAAAGGAUAUUGCGGUGACCGGCUCGGCGUACCGAGCCUACAUGAGGAUCACCCAUGUAAGAAGGUUGUCGCUGGU [JL ViennaUCT Qudice mod 2] (Eterna round: R96, puzzle: Exclusion NG 2)	19.1	–	–	–	104	24.8
GUCGUGCGGCAGUGCUGUACGAGUACAUGAGGAUCACCCAUGUAGGAUAUGGUUCGUUUUGCGUGCUAGAAGGGCGUGCGUUUU [Excl-NG3-LRO18] (Eterna round: R96, puzzle: Exclusion NG 3)	15.8	–	–	–	18	24.8
UGAUCUAGCGGAGGAUAUACAUGAGGAUCACCCAUGUAUAGGCUAUGACCGUAGUCGUGGAACAUGUAGAAGGCCGCUAGAUCU [JL ENG2 3.79] (Eterna round: R96, puzzle: Exclusion NG 2)	40.3	–	–	–	569	45.9
ACAUGAGGAUCACCCAUGUGAAAACAAUGGCUGACUUUGAGAUAGGAUAUAGGUGCAUAUCAAACCUAGAAGGGUCAUUACUGG [Deportation 91 - Jieux - Exclusion NG 3] (Eterna round: R96, puzzle: Exclusion NG 3)	35.3	–	–	–	46.6	46.5
CCUUGUCUGAAGGAUAUCCGCCGAAAAGGCAAGGGAGAAGGUUAGACAUGAGGAUCACCCAUGUGCCGGUGUAA [EX6 A.3] (Eterna round: R97, puzzle: Exclusion 6)	–	–	–	–	44.2	25.5
UUAAUUCUGAUUCUUGAAAUACAUGAGGAUCACCCAUGUUCACAGGAUAUUGAUUAUGUUAGUUACAAGAAGGGUGUAUCAUAU [JR_ExcNG3_Sub038] (Eterna round: R96, puzzle: Exclusion NG 3)	26.8	–	–	–	38.9	30.6
CGUCAGUGAGGAUAUGGUAACAUUUACAUGAGGAUCACCCAUGUUUCAUGGGACUAAAGACUAGAAGGCACUGACG [JR_Ex5_Sub031] (Eterna round: R97, puzzle: Exclusion 5)	–	–	–	–	80.9	36.9
AGAAAGCAAGGAUAUACGAGGAGAAGGUGGAGAGUUAAAGGACAUGAGGAUCACCCAUGUAGAAGGUGCGAGAA [JR_Exclu2_Sub044] (puzzle: Exclusion 2)	–	122	67.1	72	–	–
UUUCUUCAUAUCACAUGAGGAUCACCCAUGUUAUUCAUCGCGUAGGAUAUCGAGAAUUUUAAAUACGAGAAGGACGUAUUGAUA [JR_ExcNG3_Sub072] (Eterna round: R96, puzzle: Exclusion NG 3)	31.1	–	–	–	43.4	38.8
UACUUCUGAGGAUAUACAUAGAUUUACAUGAGGAUCACCCAUGUUCCUCUAUGUAUAAAUGUAGAAGGCAGAAGAU [Mat - Exclusion 5 - JL Mod - D61] (Eterna round: R97, puzzle: Exclusion 5)	–	–	–	–	87.8	16.7
